Experimental findings from the DeepSol protein solubility set are described below.

The data set in a line: soluble on expression in E. coli; label from the status in PepcDB or PDB records.
With “MHGTCLSGLYPVPFTHNSHDYPHFNIYISFGGPKYCITALNTYVTPLLHRILTTQFIYTYANITKKSPLKSPKHKNILFFNHNT”, the “soluble on expression in E. coli” value was “soluble”.

For the sequence “MSLADIPYGTDYPDAPWIDRDGHVLIDDGGKPTQVHRGQARIAYRLAERYQDKLLHVAGIGWHSWDGRRWAADDRGEAKRAVLAELRQALSDSLNDKELRADVRKCESASGVAGVLDLAAALVPFAATVADLDSDPHLLNVANGTLDLHTLKLRPHAPADRITKICRGAYQSDTESPLWQAFLTRVLPDEGVRGFVQRLAGVGLLGTVREHVLAILIGVGANGKSVFDKAIRYALGDYACTAEPDLFMHRENAHPTGEMDLRGVRWVAVSESEKDRRLAESTIKRLTGGDTIRARKMRQDFVEFTPSHTPLLITNHLPRVPGDDTAIWRRIRVVPFEVVIPADEQDRELDARLQLEADSILSWAVAGWSDYQRIGLSQPDAVLAATSNYREDSDTIKRFIDDECVTSSPVLKATTTHLFEAWQRWRVQEGVPEISRKAFGQSLDTHGYPVTDKARDGRWRAGIAVRGADDFDEGHHHHHH”, the “soluble on expression in E. coli” value is “soluble”.

“GPGSMVRCSRPAFRQVCRAWGTRVSYTHMLMAESFVKSPHARHAEFARYEGENRLVAQLAAKSGPAAAQAALLLRPYCDGIDLNCGCPQRWAMKEGIGAALLDQPERVADMVRSIRNAMPDGSTAPMIVGNGGEYSSCTSAVPPFLPCVVKMRIKDDLRRSVDFARQCEAAGVSWLTVHGRTPTCHSSTAVQFEAVKLIRENLSVPVVLNGGVTDVSTAMEAALRTGCGGLMSANGLLDNPAMFYCGASRAAMEAEMSFVTSCWGRPPRTCDPVSPPAETAAPDVFSEVFSPVRPVSFLWAPDRSNAEAVLLRYTVADMWQAAVTPREVISDFMRAAMRTDLVVPTTVQQVLRMARLYVSPAERNHLALLRSNLSVLNALQEIDVYVESGRIACE”: the “soluble on expression in E. coli” value is reported as “not soluble”.

For “MGSDKIHHHHHHMGSETEYGIHAPSAPGANATMMSARVIQAYAQLTRQRAAGGAETRWDYTDEEPLHDARGWTLERNQADPSQLTDQPPVLDAEAVALAYGREELEQDGEDETGSLLMNMVLGNGARLYVDHAHPEYSSPEVTNPLDAVAWDAAGDLVALSAVRRMAADPQLPPVNLYKNNTDNKSVSYGSHENYLMPRAVPFGDIVRGLTPFFITRQIMCGAGRVGLGQDSSRPGYQISQRADFFEAEVGLETTIRRPIINTRDEPHATADKYRRLHVIIGDANLSQAANYLKFGTTAMVLSLIEAGLAPRVEVHEPVAALQAVSHDTSLTATLRLLDGRRVTALDLQWMYHEAAAKLAQDTGVGDSVDGDGHTHALLERWAATLTDLDSDRTAAASSVEWLAKLSLLEGYRQRDGLQWNDARLGLVDLQWADVRPEKGLYYRMLARGRMDRIVADETIARAMTEPPSDTRAYFRGRCVSSFSKDVVGASWDSVIFDVPGHGRLQRVPTREPLRGTEALTGGLFARHKDTGSFLAELLGQTPPPPPA”, the “soluble on expression in E. coli” value is given as “not soluble”.

As for “MGSDKIHHHHHHMRYQNTYAQLDTRLYHEQLPNPLDNPRAGHFNNQVADQLGWTKAADLMARWVEILGGQYVPAEFQPLSMAYAGHQFGQWAGQLGDGRGLLMTQVLDKNNQLQDLHLKGAGLTPYSRMGDGRAVLRSTIREYLCGHALTQLGIASSNALGFVVSDTKVRRERLEAGAALMRVADSHIRLGHVEWIASFAPDLLAEFTDYMIDTYYPECRDSEKPVLAFLQAVVERTARMIADWQLIGFAHGVMNTDNLSITGSTLDFGPFGFMERFNPAWINNHSDHSGRYAYQNQPAIGHWNLNVWLPHFMRLTQAGVTRETLADCLAPYEATFMQHYQQGLCRKLGLPHQRESLSLAFEWLTLLEDNLLDYTNSFRALLGLIAPNEHLYEQQLLATMTAELNPEAQQVWQVWSTRYLAQIQQVSITQAIEEMQASNPIYILRNSMAQRVIVAAEQGQFEELNRVFDLLAKPYTLQDSAIELDTLPPAPHAPQMPISCSS”, the “soluble on expression in E. coli” value is “not soluble”.

Turning to “MISIFDIFKIGIGPSSSHTVGPMKAAAAFAAGLDAQAVRIVIDIYGSLALTGYGHGTFDALMLGLEGSLPHDIPLAGIPERLERIRTQHILRLNGQEIRFIPDRDLNILGNQVLPKHPNSLRFTAYASDGTVLNEQVYYSVGGGFVVTEEDFDR”, the “soluble on expression in E. coli” value is on record as “not soluble”.

Consider “SSSKFQQVEQDVKAIEVSLSARIGVSVLDTQNGEYWDYNGNQRFPLTSTFKTIACAKLLYDAEQGKVNPNSTVEIKKADLVTYSPVIEKQVGQAITLDDACFATMTTSDNTAANIILSAVGGPKGVTDFLRQIGDKETRLDRIEPDLNEGKLGDLRDTTTPKAIASTLNKFLFGSALSEMNQKKLESWMVNNQVTGNLLRSVLPAGWNIADRSGAGGFGARSITAVVWSEHQAPIIVSIYLAQTQASMEERNDAIVKIGHSIFDVYTSQSR”, for which the “soluble on expression in E. coli” value was “soluble”.

As to “MKVFLIGANGQIGQRLVSLFQDNPDHSIRAMVRKEEQKASLEAAGAEAVLANLEGSPEEIAAAAKGCDAIIFTAGSGGSTGYDKTLLVDLDGAAKAIEAAAIAGIKRFIMVSALQAHNRENWNEALKPYYVAKHYADKILEASGLTYTIIRPG”, the “soluble on expression in E. coli” value is given as “not soluble”.

Turning to “MWYQKTLTLSAKSRGFHLVTDEILNQLADMPRVNIGLLHLLLQHTSASLTLNENCDPTVRHDMECFFLRTVPDNGNYEHDYEGADDMPSHIKSSMLGTSLVLPVHKGRIQTGTWQGIWLGEHRIHGGSRRIIATLQGELEHHHHHH”, the “soluble on expression in E. coli” value was “not soluble”.

On to “MALKLPIPHNILILNRNSALELLRALKEVPKLIITRIPPDEWPDVAYTEYIWLSRVEGPNSVSPTALHVIIERAKTFLDENSGGVIYVDGIEYIMLYEEFKSVAKFLLTLKDIAVVKEGHLILHVDPKTLEDHQMAVLEREFVKINVEETIEKIRGPTLFGALIEEKGLEHHHHHH”, for which the “soluble on expression in E. coli” value is given as “soluble”.

As for “KGNTFLWLDDILYCERVDGLVFAYTKNKVYQIFHSLRDLEASYYRLGYVRCSKSMIVNIYKIHYFNSEPYGRIRATMENKEEIIISRKYANRIRTILQ”, the “soluble on expression in E. coli” value is “not soluble”.

On to “MFRKLGSSGSLWKPKNPHSLEYLKYLQGVLTKNEKVTENNKKILVEALRAIAEILIWGDQNDASVFDFFLERQMLLYFLKIMEQGNTPLNVQLLQTLNILFENIRHETSLYFLLSNNHVNSIISHKFDLQNDEIMAYYISFLKTLSFKLNPATIHFFFNETTEEFPLLVEVLKLYNWNESMVRIAVRNILLNIVRVQDDSMIIFAIKHTKEYLSELIDSLVGLSLEMDTFVRSAENVLANRERLRGKVDDLIDLIHYIGELLDVEAVAESLSILVTTRYLSPLLLSSISPRRDNHSLLLTPISALFFFSEFLLIVRHHETIYTFLSSFLFDTQNTLTTHWIRHNEKYCLEPITLSSPTGEYVNEDHVFFDFLLEAFDSSQADDSKAFYGLMLIYSMFQNNADVGELLSAANFPVLKESTTTSLAQQNLARLRIASTSSISKRTRAITEIGVEATEEDEIFHDVPEEQTLEDLVDDVLVDTENSAISDPEPKNVESESRSRFQSAVDELPPPSTSGCDGRLFDALSSIIKAVGTDDNRIRPITLELACLVIRQILMTVDDEKVHTSLTKLCFEVRLKLLSSIGQYVNGENLFLEWFEDEYAEFEVNHVNFDIIGHEMLLPPAATPLSNLLLHKRLPSGFEERIRTQIVFYLHIRKLERDLTGEGDTELPVRVLNSDQEPVAIGDCINLHNSDLLSCTVVPQQLCSLGKPGDRLARFLVTDRLQLILVEPDSRKAGWAIVRFVGLLQDTTINGDSTDSKVLHVVVEGQPSRIKKRHPVLTAKFIFDDHIRCMAAKQRLTKGRQTARGLKLQAICSALGVPRIDPATMTSSPRMNPFRIVKGCAPGSVRKTVSTSSSSSQGRPGHYSANLRSASRNAGMIPDDPTQPSSSSERRS”, for which the “soluble on expression in E. coli” value was “not soluble”.

“MKVVLQRVTRAAVTVGDEVVGSIGRGLCVLVGVHRDDTEEDMKYIIRKILNLRVFPASEQKPWDKSVMDLDLEVLSVSQFTLYGQFKGNKLDFHTAMAPTEASKFYASFLEAMKKAYKADKIQDGKFAAMMSVDIVNDGPVTVTFDSKEK”: the “soluble on expression in E. coli” value was “not soluble”.

“MGSDKIHHHHHHMDIKQLKYFVEIVKSGFNLSIASKTLHISQPALSQIIKNFEESEDVYLFERYKGRLNGLTPAGERFYVNAEHIINEYKNMMEDLREDSVQFKGKVRIGIPPLILGIAFSDVVAQLVANNPDIEFDIVEKGAYDLNRMLILQELDYAVLLHPHKIDKSVVTEHVLQEDELTAFLNINHPLAKKDKIDWNDLNEQLLAIFNPTFMIHHKLMQKFTDENVKLKRYIMSGSWDFLLLSTTNSDFITILPSPVHDFFENSKIIEKPFNHPITWKVILCRPKKERYSHVDQHVFKFIIDFFSKKNS”: the “soluble on expression in E. coli” value is given as “not soluble”.

With “MGSDKIHHHHHHMTDISWEMNDQTIVRKTDKIARQDTLPDLTLKKVKQGDRMRFDAHVNVDSMAEGQHLKRVTIFSNVPGGGTWELISDEGVAVGGRGTAPSPQMYFAAGLGLCLMSHVEMLAKSGEFEITSARLEQRSTWTTTMDLGAVAPANIYGKGEHMQMNLIIESPEPTPKIAEFIAYCRQACMALQTVAAATPVATGLYLNGAHIGDVGGTGPFAKVA”, the “soluble on expression in E. coli” value is “not soluble”.

“MSEDYADLHDPNAEYTMRELSAETMGADSGRPAPRDLEITDIQTTMVDGNFPWTLVRVYTDAGVVGTGEAYWGAGVPELIERMTPFVVGENPLDIDRLFEHLVQKMSGEGSVEGVTVTAISGIEVALHDLAGKVLGVPAYQLLGGKYRDEVRVYCDCHTAAEADPEACADEAERVVDDLGYDALKFDLDVPSGLEKDRANRHLRPGEIRHKADIVAAVTERVRDRADVAFDCHWTFSGGSAKRLAAELEAYDVWWLEDPVPPENLDVQASVTESTATPIAVGENRYRVTEARRLIENQAVDIVAPDLPKVGGMRETRKIADVANQYYVPVAMHNVASPVATMASAHVGAAIPNALAVEYHSYELGWWSDLVAEDVIEDGSIEVPERPGLGITLDMDAVEEHMVDGETLFDEA”: the “soluble on expression in E. coli” value is listed as “soluble”.

As for “MGHHHHHHSHMGLYHVGQAGLELLTSSDPPTSASQNAEITGVSHRAQSKAHNLQRKLRLSHKSSPPCTYTQHAGGVDSHPLTQDMCVIVNVIARPFDKCNCDIYLGLASELFVVSWVQLTVPYHWIQTLGNVILFCLDTAHRGHCDIAGHCT”, the “soluble on expression in E. coli” value is listed as “not soluble”.

As to “MPWIAKRRGHDADFFIMRIPRIYHPELLTSGTQISLCEDAANHIGRVLRMGPGQALQLFDGSNQVFDAEIISASKKSVEVQVMKGEIDDRESPLHIHLGQVMSRGEKMEFTIQKSIELGVSLITPLFSERCGVKLDSERLNKKRQQWQKIAIAACEQCGRNRVPEIRPPMALEAWCAEQDSGLKLNLHPRAHASINTLPLPVERVRLLIGPEGGLSADEIAMTARYQFTDILLGPRVLRTETTALTAITALQVRFGDLG”, the “soluble on expression in E. coli” value was “not soluble”.

For the sequence “MGSDKIHHHHHHMGLLLKTAASPFACSSGMQNFIANPELESYLRLNRAACGEWTLALQDLLGCSGLACDLSRPKEEVGSLSALGVGGGLVAALSVRQGLELQHCRLESVLLVFPVQGHCELLSDGAAANTLLPFQLILPGQTFSLRVTAESRLLLLMPAEQPQAVQLAAATSEAITLSIQRFLYQAGFLQDHHQGCQAAETVLREVREILAGSSGVTKVTEAVPEPDRRLLKAISKIRTEPDWPFDLQELSSHAGVSERNLYYLMKRQTGMTPYRYYQRCRLIRVRRRLVDCQCAVPHISRYAGDEGFSHFGRFAALYREHFGELPSETVQWRRRLQAQELLAPALS”, the “soluble on expression in E. coli” value is on record as “not soluble”.
